# According to patent US20110318339A1:
# Experiments:
# [1] = target: rHuman EGF R/Fc Chimera, CF (Cat# 344-ER) (human) (UniProt P00533); test: Multispot ECL; Fab […]
# [2] = target: rHuman Erythropoietin R/Fc Chimera, CF (Cat# 963-ER) (human) (UniProt P19235); test: Multispot ECL; Fab […]
# [3] = target: rHuman IGF-1 sR, (IGF-1 sR), CF (Cat# 391-GR) (human) (UniProt P08069); test: Multispot ECL; Fab […]
# [4] = target: rHuman Notch-1/Fc Chimera, CF (Cat# 3647-TK) (human) (UniProt P46531); test: Multispot ECL; Fab […]
# [5] = target: rHuman P-Cadherin/Fc Chimera, CF (Cat# 861-PC) (human) (UniProt P22223); test: Multispot ECL; Fab […]
# [6] = target: rHuman EGF R/Fc Chimera, CF (Cat# 344-ER) (human) (UniProt P00533); test: Multispot ECL; Fab 0.51 µM
# [7] = target: rHuman Erythropoietin R/Fc Chimera, CF (Cat# 963-ER) (human) (UniProt P19235); test: Multispot ECL; Fab 0.51 µM
# [8] = target: rHuman IGF-1 sR, (IGF-1 sR), CF (Cat# 391-GR) (human) (UniProt P08069); test: Multispot ECL; Fab 0.51 µM
# [9] = target: rHuman Notch-1/Fc Chimera, CF (Cat# 3647-TK) (human) (UniProt P46531); test: Multispot ECL; Fab 0.51 µM
# [10] = target: rHuman P-Cadherin/Fc Chimera, CF (Cat# 861-PC) (human) (UniProt P22223); test: Multispot ECL; Fab 0.51 µM
# [11] = target: rHuman EGF R/Fc Chimera, CF (Cat# 344-ER) (human) (UniProt P00533); test: Multispot ECL; Fab 0.1275 µM
# [12] = target: rHuman Erythropoietin R/Fc Chimera, CF (Cat# 963-ER) (human) (UniProt P19235); test: Multispot ECL; Fab 0.1275 µM
# [13] = target: rHuman IGF-1 sR, (IGF-1 sR), CF (Cat# 391-GR) (human) (UniProt P08069); test: Multispot ECL; Fab 0.1275 µM
# [14] = target: rHuman Notch-1/Fc Chimera, CF (Cat# 3647-TK) (human) (UniProt P46531); test: Multispot ECL; Fab 0.1275 µM
# [15] = target: rHuman P-Cadherin/Fc Chimera, CF (Cat# 861-PC) (human) (UniProt P22223); test: Multispot ECL; Fab 0.1275 µM
# [16] = target: rHuman EGF R/Fc Chimera, CF (Cat# 344-ER) (human) (UniProt P00533); test: Multispot ECL; Fab 0.03188 µM
# [17] = target: rHuman Erythropoietin R/Fc Chimera, CF (Cat# 963-ER) (human) (UniProt P19235); test: Multispot ECL; Fab 0.03188 µM
# [18] = target: rHuman IGF-1 sR, (IGF-1 sR), CF (Cat# 391-GR) (human) (UniProt P08069); test: Multispot ECL; Fab 0.03188 µM
# [19] = target: rHuman Notch-1/Fc Chimera, CF (Cat# 3647-TK) (human) (UniProt P46531); test: Multispot ECL; Fab 0.03188 µM
# [20] = target: rHuman P-Cadherin/Fc Chimera, CF (Cat# 861-PC) (human) (UniProt P22223); test: Multispot ECL; Fab 0.03188 µM
# [21] = target: rHuman ErbB2/Fc Chimera, CF (Cat# 1129-ER) (human) (UniProt P04626); test: Multispot ECL; Fab […]
# [22] = target: rHuman HGF R/c-MET/Fc Chimera, CF (Cat# 358-MT/CF) (human) (UniProt P08581); test: Multispot ECL; Fab […]
# [23] = target: rHuman ErbB2/Fc Chimera, CF (Cat# 1129-ER) (human) (UniProt P04626); test: Multispot ECL; Fab 0.096 µM
# [24] = target: rHuman HGF R/c-MET/Fc Chimera, CF (Cat# 358-MT/CF) (human) (UniProt P08581); test: Multispot ECL; Fab 0.096 µM
# [25] = target: rHuman IGF-1 sR, (IGF-1 sR), CF (Cat# 391-GR) (human) (UniProt P08069); test: Multispot ECL; Fab 0.096 µM
# [26] = target: rHuman ErbB2/Fc Chimera, CF (Cat# 1129-ER) (human) (UniProt P04626); test: Multispot ECL; Fab 0.0192 µM
# [27] = target: rHuman HGF R/c-MET/Fc Chimera, CF (Cat# 358-MT/CF) (human) (UniProt P08581); test: Multispot ECL; Fab 0.0192 µM
# [28] = target: rHuman IGF-1 sR, (IGF-1 sR), CF (Cat# 391-GR) (human) (UniProt P08069); test: Multispot ECL; Fab 0.0192 µM
# [29] = target: rHuman ErbB2/Fc Chimera, CF (Cat# 1129-ER) (human) (UniProt P04626); test: Multispot ECL; Fab 1.19 µM
# [30] = target: rHuman HGF R/c-MET/Fc Chimera, CF (Cat# 358-MT/CF) (human) (UniProt P08581); test: Multispot ECL; Fab 1.19 µM
# [31] = target: rHuman IGF-1 sR, (IGF-1 sR), CF (Cat# 391-GR) (human) (UniProt P08069); test: Multispot ECL; Fab 1.19 µM
# [32] = target: rHuman ErbB2/Fc Chimera, CF (Cat# 1129-ER) (human) (UniProt P04626); test: Multispot ECL; Fab 0.2975 µM
# [33] = target: rHuman HGF R/c-MET/Fc Chimera, CF (Cat# 358-MT/CF) (human) (UniProt P08581); test: Multispot ECL; Fab 0.2975 µM
# [34] = target: rHuman IGF-1 sR, (IGF-1 sR), CF (Cat# 391-GR) (human) (UniProt P08069); test: Multispot ECL; Fab 0.2975 µM
# [35] = target: rHuman ErbB2/Fc Chimera, CF (Cat# 1129-ER) (human) (UniProt P04626); test: Multispot ECL; Fab 0.01859 µM
# [36] = target: rHuman HGF R/c-MET/Fc Chimera, CF (Cat# 358-MT/CF) (human) (UniProt P08581); test: Multispot ECL; Fab 0.01859 µM
# [37] = target: rHuman IGF-1 sR, (IGF-1 sR), CF (Cat# 391-GR) (human) (UniProt P08069); test: Multispot ECL; Fab 0.01859 µM
# [38] = target: rHuman ErbB2/Fc Chimera, CF (Cat# 1129-ER) (human) (UniProt P04626); test: Multispot ECL; Fab 0.07438 µM
# [39] = target: rHuman HGF R/c-MET/Fc Chimera, CF (Cat# 358-MT/CF) (human) (UniProt P08581); test: Multispot ECL; Fab 0.07438 µM
# [40] = target: rHuman IGF-1 sR, (IGF-1 sR), CF (Cat# 391-GR) (human) (UniProt P08069); test: Multispot ECL; Fab 0.07438 µM
# [41] = target: rHuman CD44/Fc Chimera, CF (Cat# 3660-CD) (human) (UniProt P16070); test: Multispot ECL; Fab 70 nM
# [42] = target: rHuman ErbB2/Fc Chimera, CF (Cat# 1129-ER) (human) (UniProt P04626); test: Multispot ECL; Fab 70 nM
# [43] = target: rHuman IGF-1 sR, (IGF-1 sR), CF (Cat# 391-GR) (human) (UniProt P08069); test: Multispot ECL; Fab 70 nM
# [44] = target: rHuman Notch-1/Fc Chimera, CF (Cat# 3647-TK) (human) (UniProt P46531); test: Multispot ECL; Fab 70 nM
# [45] = target: rHuman P-Cadherin/Fc Chimera, CF (Cat# 861-PC) (human) (UniProt P22223); test: Multispot ECL; Fab 70 nM
# [46] = target: rHuman CD44/Fc Chimera, CF (Cat# 3660-CD) (human) (UniProt P16070); test: Multispot ECL; Fab 280 nM
# [47] = target: rHuman ErbB2/Fc Chimera, CF (Cat# 1129-ER) (human) (UniProt P04626); test: Multispot ECL; Fab 280 nM
# [48] = target: rHuman IGF-1 sR, (IGF-1 sR), CF (Cat# 391-GR) (human) (UniProt P08069); test: Multispot ECL; Fab 280 nM
# [49] = target: rHuman Notch-1/Fc Chimera, CF (Cat# 3647-TK) (human) (UniProt P46531); test: Multispot ECL; Fab 280 nM
# [50] = target: rHuman P-Cadherin/Fc Chimera, CF (Cat# 861-PC) (human) (UniProt P22223); test: Multispot ECL; Fab 280 nM
# [51] = target: rHuman CD44/Fc Chimera, CF (Cat# 3660-CD) (human) (UniProt P16070); test: Multispot ECL; Fab 17.5 nM
# [52] = target: rHuman ErbB2/Fc Chimera, CF (Cat# 1129-ER) (human) (UniProt P04626); test: Multispot ECL; Fab 17.5 nM
# [53] = target: rHuman IGF-1 sR, (IGF-1 sR), CF (Cat# 391-GR) (human) (UniProt P08069); test: Multispot ECL; Fab 17.5 nM
# [54] = target: rHuman Notch-1/Fc Chimera, CF (Cat# 3647-TK) (human) (UniProt P46531); test: Multispot ECL; Fab 17.5 nM
# [55] = target: rHuman P-Cadherin/Fc Chimera, CF (Cat# 861-PC) (human) (UniProt P22223); test: Multispot ECL; Fab 17.5 nM
# [56] = target: rHuman CD44/Fc Chimera, CF (Cat# 3660-CD) (human) (UniProt P16070); test: Multispot ECL; Fab 4.375 nM
# [57] = target: rHuman ErbB2/Fc Chimera, CF (Cat# 1129-ER) (human) (UniProt P04626); test: Multispot ECL; Fab 4.375 nM
# [58] = target: rHuman IGF-1 sR, (IGF-1 sR), CF (Cat# 391-GR) (human) (UniProt P08069); test: Multispot ECL; Fab 4.375 nM
# [59] = target: rHuman Notch-1/Fc Chimera, CF (Cat# 3647-TK) (human) (UniProt P46531); test: Multispot ECL; Fab 4.375 nM
# [60] = target: rHuman P-Cadherin/Fc Chimera, CF (Cat# 861-PC) (human) (UniProt P22223); test: Multispot ECL; Fab 4.375 nM
# Sequence of rHuman Erythropoietin R/Fc Chimera, CF (Cat# 963-ER) (human) (P19235 25-250, change not shown): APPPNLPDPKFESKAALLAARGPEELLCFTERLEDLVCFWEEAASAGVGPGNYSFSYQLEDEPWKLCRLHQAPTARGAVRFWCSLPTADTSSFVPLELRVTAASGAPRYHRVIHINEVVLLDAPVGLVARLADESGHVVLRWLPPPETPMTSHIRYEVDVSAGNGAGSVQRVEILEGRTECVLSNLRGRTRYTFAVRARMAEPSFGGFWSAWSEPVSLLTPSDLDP
substance,measurement,setting,value
Fab VH4-34_IGHD7-27*01_IGHJ4*01 & L5_IGKJ1*01,ECL signal,[1],530
same,ECL signal,[2],566
same,ECL signal,[3],564
same,ECL signal,[4],654
same,ECL signal,[5],502
same,ECL signal,[6],2360
same,ECL signal,[7],2620
same,ECL signal,[8],2240
same,ECL signal,[9],2770
same,ECL signal,[10],2390
same,ECL signal,[11],1060
same,ECL signal,[12],1070
same,ECL signal,[13],1040
same,ECL signal,[14],1500
same,ECL signal,[15],957
same,ECL signal,[16],694
same,ECL signal,[17],789
same,ECL signal,[18],765
same,ECL signal,[19],849
same,ECL signal,[20],775
Fab VH1-46_IGHD6-13*01_IGHJ4*01 & A27_IGKJ1*01,ECL signal,[21],11300
same,ECL signal,[22],8000
same,ECL signal,[3],8930
same,ECL signal,[23],3360
same,ECL signal,[24],2330
same,ECL signal,[25],2450
same,ECL signal,[26],2310
same,ECL signal,[27],1580
same,ECL signal,[28],1830
Fab VH1-46_IGHD6-13*01_IGHJ4*01 & L2_IGKJ1*01,ECL signal,[29],38400
same,ECL signal,[30],45500
same,ECL signal,[31],35200
same,ECL signal,[32],15100
same,ECL signal,[33],17400
same,ECL signal,[34],17400
same,ECL signal,[35],5530
same,ECL signal,[36],4570
same,ECL signal,[37],3780
same,ECL signal,[38],7550
same,ECL signal,[39],6610
same,ECL signal,[40],5800
Fab VH1-46_IGHD2-15*01_IGHJ2*01 & L12_IGKJ1*01,ECL signal,[41],1370
same,ECL signal,[42],1360
same,ECL signal,[43],1320
same,ECL signal,[44],1490
same,ECL signal,[45],1820
same,ECL signal,[46],4070
same,ECL signal,[47],3950
same,ECL signal,[48],3530
same,ECL signal,[49],4380
same,ECL signal,[50],5400
same,ECL signal,[51],664
same,ECL signal,[52],541
same,ECL signal,[53],626
same,ECL signal,[54],680
same,ECL signal,[55],949
same,ECL signal,[56],424
same,ECL signal,[57],384
same,ECL signal,[58],369
same,ECL signal,[59],480
same,ECL signal,[60],469
